Results published in article PMC2830148 (Biochemistry, 2009).

B1: human TRAF2 construct RZ1 (RING and first zinc finger domains, residues 1-133-His), wild type (domain or fragment, UniProt Q12933 1-133, looked up)
chain: MAAASVTPPGSLELLQPGFSKTLLGTKLEAKYLCSACRNVLRRPFQAQCGHRYCSFCLASILSSGPQNCAACVHEGIYEEGISILESSSAFPDNAARREVESLPAVCPSDGCTWKGTLKEYESCHEGRCPLML
B2: TRAF2 RZ1 Q46A mutant (domain or fragment, human, UniProt Q12933 1-133, looked up)
chain: MAAASVTPPGSLELLQPGFSKTLLGTKLEAKYLCSACRNVLRRPFAAQCGHRYCSFCLASILSSGPQNCAACVHEGIYEEGISILESSSAFPDNAARREVESLPAVCPSDGCTWKGTLKEYESCHEGRCPLML
B3: TRAF2 RZ1 N94A mutant (domain or fragment, human, UniProt Q12933 1-133, looked up)
chain: MAAASVTPPGSLELLQPGFSKTLLGTKLEAKYLCSACRNVLRRPFQAQCGHRYCSFCLASILSSGPQNCAACVHEGIYEEGISILESSSAFPDAAARREVESLPAVCPSDGCTWKGTLKEYESCHEGRCPLML

Biological target: the molecule itself
Assay: SEC

Protein | stoichiometry N | binding result
B1 | 2 | 
B2 |  | binds
B3 |  | binds
